Assay [1] addresses mouse chemokine (C-C motif) receptor 2 (CCR2) (mouse) (UniProt P51683). Briefly: cell-based or functional assay.
The target in assay [2] is human CCR2 (hCCR2) (human) (UniProt P41597). Description: autoradiography of ^64Cu-DOTA-ECL1i on human COPD lung tissue sections, co-incubation with 500-fold non-radioactive ECL1i.

This is an account of results in patent US20200405889A1.

Where no end group is shown, it is not given here. [ ]: non-standard residue; d: D form. The star is where a group is joined. maleimido‑mono‑amide‑DOTA = O=C(O)CN1CCN(CC(=O)O)CCN(CC(=O)NCCN2C(=O)CC(*)C2=O)CCN(CC(=O)O)CC1

Chain of mouse chemokine (C-C motif) receptor 2 (CCR2) (mouse) (P51683 whole entry): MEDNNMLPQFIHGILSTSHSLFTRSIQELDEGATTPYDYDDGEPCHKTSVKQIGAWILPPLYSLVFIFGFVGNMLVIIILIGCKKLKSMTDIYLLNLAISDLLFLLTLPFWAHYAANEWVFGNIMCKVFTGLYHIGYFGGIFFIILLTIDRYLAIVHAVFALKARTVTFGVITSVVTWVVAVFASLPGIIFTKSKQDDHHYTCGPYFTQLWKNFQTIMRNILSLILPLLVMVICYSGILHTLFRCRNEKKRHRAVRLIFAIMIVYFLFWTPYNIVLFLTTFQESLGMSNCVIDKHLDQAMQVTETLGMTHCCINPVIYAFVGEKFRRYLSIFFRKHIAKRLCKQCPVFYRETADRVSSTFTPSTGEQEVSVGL
Chain of human CCR2 (hCCR2) (human) (P41597 whole entry): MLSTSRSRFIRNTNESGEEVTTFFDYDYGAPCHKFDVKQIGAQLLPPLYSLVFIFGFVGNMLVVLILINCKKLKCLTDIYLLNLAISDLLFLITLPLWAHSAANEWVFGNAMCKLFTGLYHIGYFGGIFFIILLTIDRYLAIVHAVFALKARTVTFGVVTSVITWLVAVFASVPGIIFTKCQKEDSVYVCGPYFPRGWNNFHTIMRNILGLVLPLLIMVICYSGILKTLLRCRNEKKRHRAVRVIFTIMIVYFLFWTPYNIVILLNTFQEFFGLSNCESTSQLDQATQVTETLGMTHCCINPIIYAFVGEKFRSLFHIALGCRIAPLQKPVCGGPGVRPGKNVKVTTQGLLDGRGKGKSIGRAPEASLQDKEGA

B1: ^64Cu-DOTA-ECL1i (peptide)
peptide: [dL]G[dT][dF][dL][dK][dC](maleimido‑mono‑amide‑DOTA)
modifications: also: DOTA chelates 64Cu
In the case of B1, in assay [1], the graft/native lung uptake ratio, PET 1 hour after transplantation, wild type B6 lung into wild type B6 recipient stood at 3.71; the graft/native lung uptake ratio, PET at 1 hour with co-injected non-radiolabeled ECL1i was 1.17; the graft/native lung uptake ratio, PET at 4 hours, wild type into wild type worked out at 4.13; the graft/native lung uptake ratio, PET at 24 hours, wild type into wild type amounted to 3.73. In assay [1], this molecule had a lung PET uptake 24 h after intratracheal LPS of 4.43 % ID/g, a lung PET uptake 24 h after intratracheal PBS of 0.99 % ID/g, a lung PET uptake 48 h post-LPS of 1.04 % ID/g and a lung PET uptake 144 h post-LPS of 1.29 % ID/g. In addition, in assay [1], the lung PET uptake after low dose LPS came to 1.82 % ID/g; the lung PET uptake in LPS-treated mice co-injected with excess non-radioactive ECL1i (blocked) came to 0.63 % ID/g; the lung PET uptake in naive mice was found to be 0.39 % ID/g; the percent of PET signal in grafts blocked by competitive receptor blocking, wild type recipients turned out to be 75%.

B2: ECL1i peptide d(LGTFLKC) (peptide)
peptide: [dL]G[dT][dF][dL][dK][dC]
In the case of B2, the percent of autoradiography signal blocked in assay [2] amounted to 54.5%.
